Results reported in US11597752B2, “Peptides and combination of peptides and scaffolds thereof for use in immunotherapy against colorectal carcinoma (CRC) and other cancers” (priority 2015, dated 2023).

Target: HLA-A*02:01 (Homo sapiens, UniProt P04439, D140Y/D185E/D98H/E176V/E277Q/G131W/G231S/I119V/I121R/I166T/I218V/L300P/L318F/N151K/N90K/P208A/P217A/Q86G/Q94H/R138H/R169H/T345S)
Assay: MHC binding assay (UV-ligand exchange, beta2m ELISA, peptide exchange yield)
Conditions: binding to HLA-A*02:01, β2m ELISA
Excerpt: Candidate peptides for T cell based therapies according to the present invention were further tested for their MHC binding capacity (affinity). The individual peptide-MHC complexes were produced by UV-ligand exchange, where a UV-sensitive peptide is cleaved upon UV-irradiation, and exchanged with the peptide of interest as analyzed. Only peptide candidates that can effectively bind and stabilize the peptide-receptive MHC molecules prevent dissociation of the MHC complexes. To determine the yield of the exchange reaction, an ELISA was performed based on the detection of the light chain (β2m) of stabilized MHC complexes. The assay was performed as generally described in Rodenko et al. (Rodenko et al., 2006).
96 well MAXISorp plates (NUNC) were coated over night with 2 ug/ml streptavidin in PBS at room temperature, washed 4× and blocked for 1 h at 37° C. in 2% BSA containing blocking buffer. Refolded HLA-A*02:01/MLA-001 monomers served as standards, covering the range of 15-500 ng/ml. Peptide-MHC monomers of the UV-exchange reaction were diluted 100 fold in blocking buffer. Samples were incubated for 1 h at 37° C., washed four times, incubated with 2 ug/ml HRP conjugated anti-β2m for 1 h at 37° C., washed again and detected with TMB solution that is stopped with […]. Absorption was measured at 450 nm. Candidate peptides that show a high exchange yield (preferably higher than 50%, most preferred higher than 75%) are generally preferred for a generation and production of antibodies or fragments thereof, and/or T cell receptors or fragments thereof, as they show sufficient avidity to the MHC molecules and prevent dissociation of the MHC complexes.

## 3 (RLIPDTLYSV; listed as Homo sapiens) [compound 3]
  Peptide exchange (MHC class I binding score, peptide exchange yield): “++++” (≥75% = ++++)

## 4 (RLAELTVDEFL; listed as Homo sapiens) [compound 4]
  Peptide exchange (MHC class I binding score, peptide exchange yield): “+++” (≥50 = +++)

## 5 (WLFDDGGLTL; listed as Homo sapiens) [compound 5]
  Peptide exchange (MHC class I binding score, peptide exchange yield): “++++” (≥75% = ++++)

## 6 (FLAELPGSLSL; listed as Homo sapiens) [compound 6]
  Peptide exchange (MHC class I binding score, peptide exchange yield): “+++” (≥50 = +++)

## 8 (ALMLQGVDLL; listed as Homo sapiens) [compound 8]
  Peptide exchange (MHC class I binding score, peptide exchange yield): “+++” (≥50 = +++)

## 13 (FLLAEDTKV; listed as Homo sapiens) [compound 13]
  Peptide exchange (MHC class I binding score, peptide exchange yield): “+++” (≥50 = +++)

## 14 (FLDKPEDVLL; listed as Homo sapiens) [compound 14]
  Peptide exchange (MHC class I binding score, peptide exchange yield): “++” (≥20% = ++)

## 15 (LQLDKEFQL; listed as Homo sapiens) [compound 15]
  Peptide exchange (MHC class I binding score, peptide exchange yield): “+++” (≥50 = +++)

## 16 (VLVDQSWVL; listed as Homo sapiens) [compound 16]
  Peptide exchange (MHC class I binding score, peptide exchange yield): “+++” (≥50 = +++)

## 17 (ALAAARVEL; listed as Homo sapiens) [compound 17]
  Peptide exchange (MHC class I binding score, peptide exchange yield): “+++” (≥50 = +++)

## 19 (RLYTKLLNEA; listed as Homo sapiens) [compound 19]
  Peptide exchange (MHC class I binding score, peptide exchange yield): “+++” (≥50 = +++)

## 20 (YLKDGDVML; listed as Homo sapiens) [compound 20]
  Peptide exchange (MHC class I binding score, peptide exchange yield): “+++” (≥50 = +++)

## 22 (GLIDEVMVL; listed as Homo sapiens) [compound 22]
  Peptide exchange (MHC class I binding score, peptide exchange yield): “+++” (≥50 = +++)

## 23 (FLDANGHFV; listed as Homo sapiens) [compound 23]
  Peptide exchange (MHC class I binding score, peptide exchange yield): “+++” (≥50 = +++)

## 24 (VLDGVLMEL; listed as Homo sapiens) [compound 24]
  Peptide exchange (MHC class I binding score, peptide exchange yield): “+++” (≥50 = +++)

## 25 (SLADRLIGV; listed as Homo sapiens) [compound 25]
  Peptide exchange (MHC class I binding score, peptide exchange yield): “++++” (≥75% = ++++)

## 26 (GLASKENFSNVSL; listed as Homo sapiens) [compound 26]
  Peptide exchange (MHC class I binding score, peptide exchange yield): “++” (≥20% = ++)

## 27 (LLADEDSSYL; listed as Homo sapiens) [compound 27]
  Peptide exchange (MHC class I binding score, peptide exchange yield): “++” (≥20% = ++)

## 28 (ALTEIQEFI; listed as Homo sapiens) [compound 28]
  Peptide exchange (MHC class I binding score, peptide exchange yield): “++++” (≥75% = ++++)

## 29 (QMLDVAIRV; listed as Homo sapiens) [compound 29]
  Peptide exchange (MHC class I binding score, peptide exchange yield): “+++” (≥50 = +++)

## 30 (GLSSAYGGL; listed as Homo sapiens) [compound 30]
  Peptide exchange (MHC class I binding score, peptide exchange yield): “+” (≥10% = +)

## 31 (LLYGKYVSV; listed as Homo sapiens) [compound 31]
  Peptide exchange (MHC class I binding score, peptide exchange yield): “+++” (≥50 = +++)

## 32 (KLNTETFGV; listed as Homo sapiens) [compound 32]
  Peptide exchange (MHC class I binding score, peptide exchange yield): “++” (≥20% = ++)

## 33 (ALWEKNTHL; listed as Homo sapiens) [compound 33]
  Peptide exchange (MHC class I binding score, peptide exchange yield): “+++” (≥50 = +++)

## 34 (ILLEKSVSV; listed as Homo sapiens) [compound 34]
  Peptide exchange (MHC class I binding score, peptide exchange yield): “+++” (≥50 = +++)

## 35 (KLLDLTVRI; listed as Homo sapiens) [compound 35]
  Peptide exchange (MHC class I binding score, peptide exchange yield): “+++” (≥50 = +++)

## 36 (GLLESPSIFNFTA; listed as Homo sapiens) [compound 36]
  Peptide exchange (MHC class I binding score, peptide exchange yield): “+++” (≥50 = +++)

## 40 (ALSNVIHKV; listed as Homo sapiens) [compound 40]
  Peptide exchange (MHC class I binding score, peptide exchange yield): “++” (≥20% = ++)

## 41 (ILDDSFKLL; listed as Homo sapiens) [compound 41]
  Peptide exchange (MHC class I binding score, peptide exchange yield): “++” (≥20% = ++)

## 43 (TLDAAQPRV; listed as Homo sapiens) [compound 43]
  Peptide exchange (MHC class I binding score, peptide exchange yield): “++” (≥20% = ++)

## 44 (SLESKLTSV; listed as Homo sapiens) [compound 44]
  Peptide exchange (MHC class I binding score, peptide exchange yield): “+++” (≥50 = +++)

## 45 (ALAELLHGA; listed as Homo sapiens) [compound 45]
  Peptide exchange (MHC class I binding score, peptide exchange yield): “+++” (≥50 = +++)

## 46 (GLDDRYSLV; listed as Homo sapiens) [compound 46]
  Peptide exchange (MHC class I binding score, peptide exchange yield): “+++” (≥50 = +++)

## 48 (FLDASDPAL; listed as Homo sapiens) [compound 48]
  Peptide exchange (MHC class I binding score, peptide exchange yield): “++” (≥20% = ++)

## 50 (TLMAEMHVV; listed as Homo sapiens) [compound 50]
  Peptide exchange (MHC class I binding score, peptide exchange yield): “+++” (≥50 = +++)

## 51 (QVWEIQHTV; listed as Homo sapiens) [compound 51]
  Peptide exchange (MHC class I binding score, peptide exchange yield): “++” (≥20% = ++)

## 52 (ALDSSNSMQTI; listed as Homo sapiens) [compound 52]
  Peptide exchange (MHC class I binding score, peptide exchange yield): “++” (≥20% = ++)

## 53 (FLLGSEIKL; listed as Homo sapiens) [compound 53]
  Peptide exchange (MHC class I binding score, peptide exchange yield): “+++” (≥50 = +++)

## 54 (ALLNGEYLLAA; listed as Homo sapiens) [compound 54]
  Peptide exchange (MHC class I binding score, peptide exchange yield): “+++” (≥50 = +++)

## 56 (VLFTDEGVPKFL; listed as Homo sapiens) [compound 56]
  Peptide exchange (MHC class I binding score, peptide exchange yield): “++” (≥20% = ++)

## 57 (NLLEKENYL; listed as Homo sapiens) [compound 57]
  Peptide exchange (MHC class I binding score, peptide exchange yield): “+++” (≥50 = +++)

## 58 (AMADKMDMSL; listed as Homo sapiens) [compound 58]
  Peptide exchange (MHC class I binding score, peptide exchange yield): “++” (≥20% = ++)

## 60 (VLDEDEPRFL; listed as Homo sapiens) [compound 60]
  Peptide exchange (MHC class I binding score, peptide exchange yield): “++” (≥20% = ++)

## 61 (KLLKLFQGV; listed as Homo sapiens) [compound 61]
  Peptide exchange (MHC class I binding score, peptide exchange yield): “+++” (≥50 = +++)

## 62 (YLAPENGYL; listed as Homo sapiens) [compound 62]
  Peptide exchange (MHC class I binding score, peptide exchange yield): “++” (≥20% = ++)

## 63 (KLFSILSTV; listed as Homo sapiens) [compound 63]
  Peptide exchange (MHC class I binding score, peptide exchange yield): “++” (≥20% = ++)

## 66 (GLDDGPDFL; listed as Homo sapiens) [compound 66]
  Peptide exchange (MHC class I binding score, peptide exchange yield): “++” (≥20% = ++)

## 67 (SLNDLEKDVMLL; listed as Homo sapiens) [compound 67]
  Peptide exchange (MHC class I binding score, peptide exchange yield): “+++” (≥50 = +++)

## 68 (SILQFVHMV; listed as Homo sapiens) [compound 68]
  Peptide exchange (MHC class I binding score, peptide exchange yield): “+++” (≥50 = +++)

## 69 (GMLNEAEGKAIKL; listed as Homo sapiens) [compound 69]
  Peptide exchange (MHC class I binding score, peptide exchange yield): “++” (≥20% = ++)

## 70 (MISELEVRL; listed as Homo sapiens) [compound 70]
  Peptide exchange (MHC class I binding score, peptide exchange yield): “+++” (≥50 = +++)

## 71 (RLWTEIPTAI; listed as Homo sapiens) [compound 71]
  Peptide exchange (MHC class I binding score, peptide exchange yield): “+++” (≥50 = +++)

## 72 (YLLDYPNNLL; listed as Homo sapiens) [compound 72]
  Peptide exchange (MHC class I binding score, peptide exchange yield): “+++” (≥50 = +++)

## 73 (YLFDIAVSM; listed as Homo sapiens) [compound 73]
  Peptide exchange (MHC class I binding score, peptide exchange yield): “+++” (≥50 = +++)

## 74 (YLMGFLHAV; listed as Homo sapiens) [compound 74]
  Peptide exchange (MHC class I binding score, peptide exchange yield): “+++” (≥50 = +++)

## 75 (EMIENIQSV; listed as Homo sapiens) [compound 75]
  Peptide exchange (MHC class I binding score, peptide exchange yield): “++” (≥20% = ++)

## 76 (YLIGEKQHYL; listed as Homo sapiens) [compound 76]
  Peptide exchange (MHC class I binding score, peptide exchange yield): “+++” (≥50 = +++)

## 77 (SLLKRDFGA; listed as Homo sapiens) [compound 77]
  Peptide exchange (MHC class I binding score, peptide exchange yield): “++” (≥20% = ++)

## 78 (ALDPELLLL; listed as Homo sapiens) [compound 78]
  Peptide exchange (MHC class I binding score, peptide exchange yield): “++” (≥20% = ++)

## 79 (SLAADQLLKL; listed as Homo sapiens) [compound 79]
  Peptide exchange (MHC class I binding score, peptide exchange yield): “++” (≥20% = ++)

## 80 (QVDEVVDIMRV; listed as Homo sapiens) [compound 80]
  Peptide exchange (MHC class I binding score, peptide exchange yield): “++” (≥20% = ++)

## 81 (ALLSQQTHL; listed as Homo sapiens) [compound 81]
  Peptide exchange (MHC class I binding score, peptide exchange yield): “+++” (≥50 = +++)
